We go through 83 variants from the RNAGym collection of RNA variant scans (doi:10.1093/molbev/msab373).

Sequences and labels used below:
B1: Azoarcus group I ribozyme (parent)
chain: GUGCCUUGCGCCGGGAAACCACGCAAGGGAUGGUGUCAAAUUCGGCGAAACCUAAGCGCCCGCCCGGGCGUAUGGCAACGCCGAGCCAAGCUUCGGCGCCUGCGCCGAUGAAGGUGUAGAGACUAGACGGCACCCACCUAAGGCAAACGCUAUGGUGAAGGCAUAGUCCAGGGAGUGGCGAAAGUCACACAAACCGG

The variants in the data set derive from B1. Put plainly: reverse-splicing fitness (ratio to wild type); higher = more active; in vitro selection; Mg2+ level not given. The essentials: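 An in vitro group I ribozyme library with randomized positions was T7-transcribed and gel-purified. In triplicate, 10 pmol RNA in EPPS pH 7.5 was reacted with 50 pmoles of a 30-nt RNA substrate for 1 h at 37 °C across several added MgCl2 levels (1–48 mM), then stopped with EDTA. Products were reverse transcribed from a substrate-complementary primer, PCR-amplified and sequenced (HiSeq 4000). Fitness is a variant's read proportion after selection over that before, normalised to wild type.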
For the variant A145C C169U, the reverse-splicing fitness was found to be 0.351.
The same measure for A120U A145G C150G: 0.25; for A120U A145G C150A: 0.361; for A120U A145G C150U: 0.841.
In the case of A120U A145U C150G C169A U176A, the reverse-splicing fitness amounted to 0.00344.
The same measure for A120U A145U C150G C169A U176G: 0.00241.
For A120U A145U C150G C169A U176C, the reverse-splicing fitness is 0.00335.
The same measure for A120U A145C C150U C169U: 0.0928.
The result for A120U A145C C150U C169G reads 0.0691.
The result for A120U A145C C150U C169A reads 0.00515; that for A120U C169U, 0.257; that for A120U C169A, 0.0174.
On to A120U C169G, for which the reverse-splicing fitness turned out to be 0.262.
The result for A145G C150U reads 0.93.
Consider A145G C150G, for which the reverse-splicing fitness amounted to 0.48.
The same measure for A145G C150A: 0.582; for A120U C169U U176G: 0.0138.
A120U C169U U176A: the reverse-splicing fitness is 0.0922.
With A120U C169U U176C, the reverse-splicing fitness was determined as 0.139.
The result for A120U U176C reads 0.678; that for A120U U176G, 0.421.
The same measure for A120U U176A: 0.66; for A120U A145G C169U U176G: 0.0132.
The same measure for A120U A145G C169U U176C: 0.126; for A120U A145G C169U U176A: 0.0927.
In the case of A145G C150G C169U U176G, the reverse-splicing fitness was determined as 0.00808.
For A145G C150G C169U U176C, the reverse-splicing fitness stood at 0.0454.
The same measure for A145G C150G C169U U176A: 0.0192; for A120U C150A U176A: 0.178; for A120U C150A U176C: 0.172.
For the variant A120U C150A U176G, the reverse-splicing fitness turned out to be 0.0831.
The same measure for A120U C150U U176C: 0.556.
The result for A120U C150U U176A reads 0.62; that for A120U C150U U176G, 0.222; that for A120U C150G U176A, 0.0739.
The result for A120U C150G U176G reads 0.0108; that for A120U C150G U176C, 0.115; that for A120U A145C C150G C169U, 0.0478.
Turning to A145C C150A C169A, the reverse-splicing fitness amounted to 0.0125.
The same measure for A145C C150A C169G: 0.0208.
A145C C150A C169U: the reverse-splicing fitness turned out to be 0.0286.
The result for A120U A145U C150U C169G U176C reads 0.0637; that for A120U A145U C150U C169G U176G, 0.00311; that for A120U A145U C150U C169G U176A, 0.0285.
The same measure for A120U C150U C169G U176G: 0.00278.
The result for A120U C150U C169G U176C reads 0.0569; that for A120U C150U C169G U176A, 0.0257.
For the variant A120U A145G C169G, the reverse-splicing fitness worked out at 0.255.
The result for A120U A145G C169A reads 0.0154.
The same measure for A120U A145G C169U: 0.286; for A120U A145C C169G U176C: 0.0504.
With A120U A145C C169G U176A, the reverse-splicing fitness turned out to be 0.0356.
Consider A120U A145C C169G U176G, for which the reverse-splicing fitness was determined as 0.00318.
The result for A120U A145G C150G C169A U176C reads 0.00713.
The result for A120U A145G C150G C169A U176G reads 0.00464.
Take A120U A145G C150G C169A U176A: the reverse-splicing fitness is 0.0107.
The result for A120U C150U C169A U176C reads 0.00368.
On to A120U C150U C169A U176A, for which the reverse-splicing fitness turned out to be 0.0051.
For the variant A120U C150U C169A U176G, the reverse-splicing fitness is 0.00183.
Regarding A120U A145U C169G U176C, the reverse-splicing fitness was 0.0807.
The same measure for A120U A145U C169G U176A: 0.0356; for A120U A145U C169G U176G: 0.00322; for A120U A145U C150A C169U U176C: 0.015.
The same measure for A120U A145U C150A C169U U176A: 0.0134; for A120U A145U C150A C169U U176G: 0.00399.
Take A120U A145G C169G U176C: the reverse-splicing fitness was 0.0902.
The result for A120U A145G C169G U176G reads 0.00281.
As for A120U A145G C169G U176A, the reverse-splicing fitness was found to be 0.0414.
The result for A120U A145U C150G C169U reads 0.0429.
The result for A120U A145U C150G C169A reads 0.00425; that for A120U A145U C150G C169G, 0.0307.
A120U A145G C150G U176G: the reverse-splicing fitness worked out at 0.013.
The result for A120U A145G C150G U176C reads 0.146; that for A120U A145G C150G U176A, 0.084; that for A120U A145G C150U U176C, 0.532.
The result for A120U A145G C150U U176A reads 0.54; that for A120U A145G C150U U176G, 0.155; that for A120U A145C C169A U176C, 0.00401.
The result for A120U A145C C169A U176A reads 0.00275; that for A120U A145C C169A U176G, 0.00153; that for A145C C150U C169U U176A, 0.0513.
As to A145C C150U C169U U176G, the reverse-splicing fitness was found to be 0.00838.
The same measure for A145C C150U C169U U176C: 0.0741.
